Eight molecules from patent US20230212294A1 (MINGHUI PHARMACEUTICAL SHANGHAI, published 2023) can be followed below.

Experiment [1] addresses T1, B7-H3 on CHOK cells overexpressing B7-H3.
T1 construct: whole, on cells; also called CHO cells that artificially express B7-H3; B7-H3-expressing CHO cells
T1 sequence (Q5ZPR3 whole entry, species assumed, looked up): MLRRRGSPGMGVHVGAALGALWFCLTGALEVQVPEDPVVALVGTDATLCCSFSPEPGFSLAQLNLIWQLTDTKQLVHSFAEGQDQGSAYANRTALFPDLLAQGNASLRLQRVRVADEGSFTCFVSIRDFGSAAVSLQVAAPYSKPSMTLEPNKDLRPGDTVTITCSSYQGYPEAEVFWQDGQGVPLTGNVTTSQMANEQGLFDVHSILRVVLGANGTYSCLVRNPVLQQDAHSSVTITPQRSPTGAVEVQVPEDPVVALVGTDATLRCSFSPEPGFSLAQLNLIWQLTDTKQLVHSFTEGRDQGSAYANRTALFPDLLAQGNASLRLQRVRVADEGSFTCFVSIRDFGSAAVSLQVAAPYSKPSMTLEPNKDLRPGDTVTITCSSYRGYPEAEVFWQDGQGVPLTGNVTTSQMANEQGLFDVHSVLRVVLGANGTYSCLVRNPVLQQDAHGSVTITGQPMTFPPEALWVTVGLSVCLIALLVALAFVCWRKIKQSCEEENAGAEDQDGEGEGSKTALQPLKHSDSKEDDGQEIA
Briefly: flow cytometry on CHOK cells overexpressing B7-H3. How it is done: (§1) CHOK cells overexpressing B7-H3 or NCI-H322 cells endogenously expressing B7-H3 were added to a round-bottom 96-well plate at 100,000 cells per well, centrifuged to remove the supernatant, and then added with a gradient-diluted anti-B7-H3 antibody and incubated at 4 degrees for 1 h. After incubation, the cells were washed twice with FACS buffer (PBS containing 2% FBS), then added with fluorescent-labeled goat anti-human secondary antibody (Abcam, ab98596) and incubated for 0.5 h. After incubation, the cells were washed twice with FACS buffer, then resuspended with FACS buffer and detected with flow cytometry (Beckman, cytoFlex).

Experiment [2] addresses T2, mouse B7-H3-his (mouse, UniProt Q8VE98 29-244, limits assumed).
T2 construct: His-tagged recombinant protein coated on the ELISA plate; not shown: his tag
T2 sequence (looked up): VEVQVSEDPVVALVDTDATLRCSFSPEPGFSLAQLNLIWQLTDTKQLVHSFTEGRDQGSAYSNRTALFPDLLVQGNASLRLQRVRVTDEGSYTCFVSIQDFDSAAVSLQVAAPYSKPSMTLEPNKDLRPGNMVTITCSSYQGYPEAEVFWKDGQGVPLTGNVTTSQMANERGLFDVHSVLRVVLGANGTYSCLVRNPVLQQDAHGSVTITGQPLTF
Briefly: ELISA, mouse B7-H3-his coated at 2 µg/mL. The protocol: (§2) Human B7-H3-his, mouse B7-H3-his and monkey B7-H3-his were diluted to 2 μg/mL with PBS, and added to the ELISA plate at 30 μL per well. The ELISA plate was then incubated in a refrigerator at 4° C. for 16-20 hours. The next day, the ELISA plate was washed once with a lotion (PBS containing 0.05% Tween 20) and then blocked with 5% skim milk powder for 1 hour. After blocking, the ELISA plate was washed once, then added with gradient-diluted anti-B7-H3 antibodies, and incubated at room temperature for 1 h. After incubated, the ELISA plate was washed three times, then added with goat anti-human HRP-labeled secondary antibody, and incubated at room temperature for 1 h. After incubated, the ELISA plate was washed three times, then developed for 5-15 minutes by adding TMB, and finally terminated with 2M sulfuric acid. The data were recorded on the microplate reader.
Background: An ELISA detects its analyte on a solid surface through an enzyme-linked reagent.

Experiment [3] deals with T3, B7-H3 endogenously expressed on human tumor cell lines (human, UniProt Q5ZPR3 29-534).
T3 construct: whole, on cells; The cell line is named in the assay or readout field of each row; also called NCI-H322 cells endogenously expressing B7-H3; B7-H3-positive human tumor cell lines NCI-H1975, BxPC-3, Calu-6
T3 sequence (looked up): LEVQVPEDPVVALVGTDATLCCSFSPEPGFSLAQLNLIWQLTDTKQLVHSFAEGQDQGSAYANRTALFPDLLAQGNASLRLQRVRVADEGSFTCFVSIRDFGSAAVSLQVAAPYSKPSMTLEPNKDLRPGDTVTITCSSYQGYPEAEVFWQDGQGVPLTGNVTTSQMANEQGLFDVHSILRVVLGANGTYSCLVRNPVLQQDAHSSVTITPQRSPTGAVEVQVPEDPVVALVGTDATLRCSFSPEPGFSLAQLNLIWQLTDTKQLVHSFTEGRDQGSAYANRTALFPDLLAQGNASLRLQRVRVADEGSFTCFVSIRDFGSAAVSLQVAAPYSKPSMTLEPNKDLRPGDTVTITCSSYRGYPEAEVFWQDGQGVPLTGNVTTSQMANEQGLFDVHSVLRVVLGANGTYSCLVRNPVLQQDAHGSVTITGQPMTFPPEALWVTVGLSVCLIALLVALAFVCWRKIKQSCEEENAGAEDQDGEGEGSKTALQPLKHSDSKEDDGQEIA
The experiment is described as follows: flow cytometry on NCI-H322 cells. How it is done: as §1
A general note: In flow cytometry, cells or beads pass a laser one at a time.

In experiment [4] the target is T1, B7-H3 on CHOK cells overexpressing B7-H3. The experiment is described as follows: cell-based or functional assay.
The target in experiment [5] is T2, mouse B7-H3-his. The experiment is described as follows: ELISA, antigen coated at 2 µg/mL. How it is done: as §2
A further experiment addresses T4, monkey B7-H3-his (monkey).
T4 chain: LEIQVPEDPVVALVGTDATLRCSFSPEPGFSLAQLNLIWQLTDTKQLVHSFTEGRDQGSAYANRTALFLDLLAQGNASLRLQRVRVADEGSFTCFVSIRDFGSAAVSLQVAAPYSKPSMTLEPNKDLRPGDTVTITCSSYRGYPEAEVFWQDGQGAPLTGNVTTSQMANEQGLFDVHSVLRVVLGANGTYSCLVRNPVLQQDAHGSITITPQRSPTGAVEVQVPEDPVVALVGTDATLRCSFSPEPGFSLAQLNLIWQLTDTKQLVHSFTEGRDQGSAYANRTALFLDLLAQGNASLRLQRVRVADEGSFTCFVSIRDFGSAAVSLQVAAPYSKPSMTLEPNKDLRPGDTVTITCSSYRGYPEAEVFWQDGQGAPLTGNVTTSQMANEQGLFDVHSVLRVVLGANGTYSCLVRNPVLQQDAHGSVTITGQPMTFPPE
The experiment is described as follows: ELISA, antigen coated at 2 µg/mL. How it is done:
as §2

For experiment [6], the target named is T3, B7-H3 endogenously expressed on human …. The experiment is described as follows: cell-based or functional assay.

B1: IL-P7-A06 (antibody, V domains shown)
VH: QVQLQQSGPEVVRPGVSVKISCKGSGYTFTDYAMHWVKQSHAKSLEWIGIINTYNGNTNYNQKFKGKATMTVDKSSSTAYMEFARLTSEDSAIYYCARSRGPWDRYFDVWGAGTTVTVSS
VL: DIVMTQSQKFMSTSVGDRVSVTCKASQNVGTAVAWYQQKPGQSPKLLIYSASNRYTGVPDRFTGSGSGTDFTLTISNMQSEDLADYFCQQYSSYPFTFGSGTKLEIK
notes: Unhumanized murine variable regions; full-length antibody
Usually EC50 stands for the midpoint of the concentration-response curve. For the molecule B1, the values for the EC50 in experiment [1] and in experiment [3] were 0.278 µg/mL and 0.072 µg/mL, respectively. In the experiment with mouse B7-H3-his [2], the binding result was “no binding”. In addition, in experiment [4], the “IC50 of CHO endocytosis experiment (toxin-labeled secondary antibody, cell viability)” value (from here on “IC50 of CHO endocytosis experiment”) is 0.0086 µg/mL.

B2: IL-P6-D06 (antibody, V domains shown)
VH: QVQLQQSGPELVRPGVSVKISCKGSGYTFTDYAIHWVKQSHAKSLEWIGVINTYSGNTNYNQKFKGRATMTVDKSSSTAYMELARLTSEDSAIYFCARGVTYGSGYPYWYFDVWGAGTTVTVSS
VL: DIVMTQSQKFMSTSVGDRVSVTCKASQNVGTNVAWYQQKPGQSPKALIYSASYRYSGVPDRFTGSGSGTDFTLTISNVQSEDLAEYFCQQYNSYPYTFGGGTKLEIK
notes: as for B1
With B2, the EC50 in the experiment with mouse B7-H3-his [5] was found to be 1.13 µg/mL; in the experiment with monkey B7-H3-his it was 0.119 µg/mL; in experiment [1], 0.245 µg/mL; in experiment [3], 0.103 µg/mL. Moreover, the “IC50 of NCI-H322 endocytosis experiment (toxin-labeled secondary antibody, cell viability)” value (“IC50 of NCI-H322 endocytosis experiment” for short) in experiment [6] was found to be 0.00179 µg/mL.

B3: IL-P5-B01 (antibody, V domains shown)
VH: EVQLQESGPSLVKPSQTLSLTCSVTGDSITSGSWNWIRKFPGNKLEYMGYISYSGSIYYNPSLKSRISITRDTSKNQYYLQLNSVTTEDTATYYCARGNPAWFAYWGQGTLVTVSA
VL: DIVMTQSQKFMSTSVGDRVSVTCKASQNVGTNVAWYQQKPGQSPKALIYSASYRYSGVPDRFTGSGSGTDFTLTISNVQSEDLAEYFCQQYNSYPYTFGGGTKLEIK
notes: as for B1
On to B3, for which the EC50 in the experiment with monkey B7-H3-his is 0.115 µg/mL; in experiment [1], 0.43 µg/mL; in experiment [3] it was 0.131 µg/mL. Also, the binding result in the experiment with mouse B7-H3-his [2] is given as “no binding”. Moreover, the “IC50 of CHO endocytosis experiment” value in experiment [4] was 0.0028 µg/mL.

B4: IL-P7-C05-H4L3 (antibody, V domains shown)
VH: EVQLVESGGGLVQPGGSLRLSCAASGFTFSSYAMSWVRQAPGKGLELVAAINSNGGSTYYADSVKGRFTISRDNAKNTLYLQMSSLRAEDTAVYYCTRNEEFRRGLAYWGQGTLVTVSS
VL: DIQMTQSPSSLSASVGDRVTITCRASENIYSNLAWYQQKPGKAPKLLIYAASNLQSGVPSRFSGSGSGTDYTLTISSLQPEDFATYYCQHFWGTPPWTFGQGTKLEIK
notes: Humanized from IL-P7-C05; full-length antibody; also called ILP7C05huVH4 + ILP7C05huVL3
As to B4, the EC50 in experiment [1] was determined as 0.48 µg/mL; in experiment [3], 0.0137 µg/mL. Besides, the “IC50 of NCI-H322 endocytosis experiment” value in experiment [6] was determined as 0.00253 µg/mL. Further, the “IC50 of CHO endocytosis experiment” value in experiment [4] came out at 0.0199 µg/mL.

B5: IL-P6-C11 (antibody, V domains shown)
VH: EVQLQQSGPELVKPGASVRISCKTSGYTFTDYVIHWVKQNHGGSLEWIGGINRDSGGTTYNQKFQDKVTLTVDKSSNTAYMELRSLTSEDSAVYYCTKWKFPWYFDVWGAGTTVTVSS
VL: DIELTQSPAIMSASPGEKVTMTCSASSSISYMHWYQQKPGTSPKRWIYDTSKLASGVPARFSGSGSGTSYSLTISRVEAEDAATYYCQQWSSNPLTFGSGTKLEIK
notes: as for B1
Turning to B5, the EC50 with mouse B7-H3-his [5] was 0.523 µg/mL; with monkey B7-H3-his, 0.0152 µg/mL; in experiment [1], 0.311 µg/mL; in experiment [3], 0.21 µg/mL. Moreover, in experiment [4], the “IC50 of CHO endocytosis experiment” value worked out at 0.0035 µg/mL.

B6: IL-P6-C08 (antibody, V domains shown)
VH: EVKLVESGGDLVKPGGSLKLSCAASGFTFSSYGMSWVRQTSDKRLEWVATISGGGRYTYYPDSVKGRFTISRDSSKNTLYLQMSSLKSEDTAMYYCVRHYDGYLDYWGLGTTLTVSS
VL: DIQMIQSPASLSASVGETVTITCRASENIYSYLAWYQQKQGKSPQLLVYNAKTLAEGVPSRFSGSGSGTQFSLKINSLQPEDFGSYYCQHHYGTPPYTFGGGTKLEIK
notes: as for B1
On to B6, for which the EC50 in the experiment with monkey B7-H3-his came to 0.0541 µg/mL; in experiment [3], 0.158 µg/mL. The binding result with mouse B7-H3-his [2] is recorded as “no binding”.

B7: IL-P5-C06 (antibody, V domains shown)
VH: QVQLQQSGPELVRPGVSVKISCKGSGYTFTDYAIHWAKQGHAKSLEWIGIINTYNGNSNYNQNFKGKATMTVDKSSSTAYMELTRLTSEDSAIYYCARNYGSSFNWYFDVWGQGTTLTVSS
VL: DIVLTQSPTTMAASPGEKITITCSASSSISSNYLHWYQQKPGFSPKLLIYSTSNLASGVPARFSGSGSGTSYSLTISSVEAEDAATYYCQQYSGYPLTFGAGTKLELK
notes: Unhumanized murine variable regions from the murine immune phage library; full-length antibody
Consider B7, for which the EC50 in the experiment with mouse B7-H3-his [5] was 0.134 µg/mL; with monkey B7-H3-his, 0.116 µg/mL; in experiment [1] it was 0.954 µg/mL; in experiment [3] it was 0.0795 µg/mL. For the same molecule, the “IC50 of NCI-H322 endocytosis experiment” value in experiment [6] stood at 0.0025 µg/mL. In experiment [4], the “IC50 of CHO endocytosis experiment” value is 0.0209 µg/mL.

B8: IL-P7-C05 (antibody, V domains shown)
VH: EVQLVESGGDLVQPGGSLKLSCAASGFTFSSYGMSWVRQTPDKRLELVATINSNGGTTYYPDSVKGRFTISRDNAKHTLYLQMSSLKSEDTAMYYCTRNEEFRRGLAYWGQGTLVTVSA
VL: DIQMIQSPASLSVSVGETVTITCRASENIYSNLAWYQQKQGKSPQLLVYAATNLADGVPSRFSGSGSGTQYSLKINSLQSEDFGSYYCQHFWGTPPWTFGGGTKLEIK
notes: Unhumanized murine variable regions from the murine immune phage library; tested as full-length antibody expressed in ExpiCHO-S cells
As to B8, the EC50 stood at 1.21 µg/mL with mouse B7-H3-his [5], 0.14 µg/mL with monkey B7-H3-his, 0.487 µg/mL in experiment [1] and 0.0126 µg/mL in experiment [3]. Also, the “IC50 of NCI-H322 endocytosis experiment” value in experiment [6] came out at 0.00296 µg/mL. In addition, the “IC50 of CHO endocytosis experiment” value in experiment [4] came to 0.0144 µg/mL.
